Results taken from IntAct's records for PubMed 23142976.

B1: Autophagy-related protein 3 (Saccharomyces cerevisiae), P40344 (parent)
chain: MIRSTLSSWREYLTPITHKSTFLTTGQITPEEFVQAGDYLCHMFPTWKWNEESSDISYRDFLPKNKQFLIIRKVPCDKRAEQCVEVEGPDVIMKGFAEDGDEDDVLEYIGSETEHVQSTPAGGTKDSSIDDIDELIQDMEIKEEDENDDTEEFNAKGGLAKDMAQERYYDLYIAYSTSYRVPKMYIVGFNSNGSPLSPEQMFEDISADYRTKTATIEKLPFYKNSVLSVSIHPCKHANVMKILLDKVRVVRQRRRKELQEEQELDGVGDWEDLQDDIDDSLRVDQYLIVFLKFITSVTPSIQHDYTMEGW
partner: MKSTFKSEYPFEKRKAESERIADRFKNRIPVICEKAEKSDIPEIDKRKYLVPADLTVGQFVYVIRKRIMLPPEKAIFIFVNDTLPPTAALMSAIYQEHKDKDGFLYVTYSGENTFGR
B2: Ubiquitin-like modifier-activating enzyme ATG7 (Saccharomyces cerevisiae), P38862 (parent)
chain: MSSERVLSYAPAFKSFLDTSFFQELSRLKLDVLKLDSTCQPLTVNLDLHNIPKSADQVPLFLTNRSFEKHNNKRTNEVPLQGSIFNFNVLDEFKNLDKQLFLHQRALECWEDGIKDINKCVSFVIISFADLKKYRFYYWLGVPCFQRPSSTVLHVRPEPSLKGLFSKCQKWFDVNYSKWVCILDADDEIVNYDKCIIRKTKVLAIRDTSTMENVPSALTKNFLSVLQYDVPDLIDFKLLIIRQNEGSFALNATFASIDPQSSSSNPDMKVSGWERNVQGKLAPRVVDLSSLLDPLKIADQSVDLNLKLMKWRILPDLNLDIIKNTKVLLLGAGTLGCYVSRALIAWGVRKITFVDNGTVSYSNPVRQALYNFEDCGKPKAELAAASLKRIFPLMDATGVKLSIPMIGHKLVNEEAQHKDFDRLRALIKEHDIIFLLVDSRESRWLPSLLSNIENKTVINAALGFDSYLVMRHGNRDEQSSKQLGCYFCHDVVAPTDSLTDRTLDQMCTVTRPGVAMMASSLAVELMTSLLQTKYSGSETTVLGDIPHQIRGFLHNFSILKLETPAYEHCPACSPKVIEAFTDLGWEFVKKALEHPLYLEEISGLSVIKQEVERLGNDVFEWEDDESDEIA
partner: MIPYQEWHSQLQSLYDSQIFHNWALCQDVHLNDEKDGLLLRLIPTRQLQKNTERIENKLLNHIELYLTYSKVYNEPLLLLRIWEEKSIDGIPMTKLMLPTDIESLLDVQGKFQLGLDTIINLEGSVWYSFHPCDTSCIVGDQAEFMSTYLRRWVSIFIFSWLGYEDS
B3: Ubiquitin-like modifier-activating enzyme ATG7 (Saccharomyces cerevisiae), P38862 (parent)
chain: B2 chain
partner: B1 chain

Variants of: B1
Conditions: with atg8_yeast ATG8, P38182

Variant | effect of a mutation on the interaction
MIRSTLSSWREYLTPITHKSTFLTTGQITPEEFVQAGDYLCHMFPTWKWNEESSDISYRDFLPKNKQFLIIAAVPCDKRAEQCVEVEGPDVIMKGFAEDGDEDDVLEYIGSETEHVQSTPAGGTKDSSIDDIDELIQDMEIKEEDENDDTEEFNAKGGLAKDMAQERAYDLYIAYSTSYRVPKMYIVGFNSNGSPLSPEQMFEDISADYRTKTATIEKLPFYKNSVLSVSIHPCKHANVMKILLDKVRVVRQRRRKELQEEQELDGVGDWEDLQDDIDDSLRVDQYLIVFLKFITSVTPSIQHDYTMEGW [R72A;K73A;Y168A] | disrupting interaction strength

Variants of: B2
Conditions: with atg10_yeast ATG10, Q07879

Variant | effect of a mutation on the interaction
V285D | disrupting interaction strength
C507A | disrupting interaction strength
Y137A | decreasing interaction strength

Variants of: B3
Conditions: with atg3_yeast ATG3, P40344

Variant | effect of a mutation on the interaction
F16A;F61A | decreasing interaction strength
C507A | disrupting interaction strength
P283D | decreasing interaction strength
K14A;F16A;D18A | decreasing interaction strength
V285A | decreasing interaction strength
